{"source": "patent US20020115596", "key": {"[1]": {"test_system": "Glutaryl-(4-trans-L-Hyp)ASChgQ-SV-DOX (3′)"}, "[2]": {"test_system": "Succinyl-(4-trans-L-Hyp)ASChgQ-SV-DOX (3′)"}, "[3]": {"test_system": "Succinyl-(4-trans-L-Hyp)ASChgQ-SThi-DOX (3′)"}, "[4]": {"test_system": "Glutaryl-(4-trans-L-Hyp)SSChgQ-SI-DOX (3′)"}, "[5]": {"test_system": "[N-Glutaryl-(4-trans-L-Hyp)]-Ala-Ser-Chg-Gln-Ser-Leu-Dox"}, "[6]": {"test_system": "PEG(2)-(4-trans-L-Hyp)ASChgQ-SThi-DOX (3′)"}, "[7]": {"test_system": "Ac-(4-trans-L-Hyp)ASChgQ-StBUAla-DOX (3′)"}, "[8]": {"test_system": "Glutaryl-(4-trans-L-Hyp)ASChgQ-SI-DOX (3′)"}, "[9]": {"test_system": "Succinyl-(4-trans-L-Hyp)ASChgQ-SAbu-DOX (3′)"}, "[10]": {"test_system": "Ac-(4-trans-L-Hyp)ASChgQ-SThi-acid"}, "[11]": {"test_system": "[N-Ac-(4-trans-L-Hyp)]-Ala-Ser-Chg-Gln-Ser-Leu-Dox"}, "[12]": {"test_system": "PEG(2)-(4-trans-L-Hyp)ASChgQ-SL-DOX (3′)"}, "[13]": {"test_system": "Ac-(4-trans-L-Hyp)ASChgQ-SLacid"}, "[14]": {"test_system": "PEG(2)-(4-trans-L-Hyp)SSChgQ-SL-DOX (3′)"}, "[15]": {"test_system": "Glutaryl-(4-trans-L-Hyp)SSChgQ-SL-DOX (3′)"}, "[16]": {"test_system": "(4-trans-L-Hyp)-Ala-Ser-Chg-Gln-Ser-Leu-Dox"}, "[17]": {"test_system": "Malonyl-(4-trans-L-Hyp)ASChgQ-SL-DOX (3′)"}, "[18]": {"test_system": "Succinyl-(4-trans-L-Hyp)ASChgQ-SI-DOX (3′)"}, "[19]": {"test_system": "PEG(4)-(4-trans-L-Hyp)-SSChgQ-SL-DOX (3′)"}, "[20]": {"test_system": "Succinyl-(4-trans-L-Hyp)SSChgQ-SI-DOX (3′)"}, "[21]": {"test_system": "Succinyl-3,4-(diOH)PASChgQ-SL-DOX (3′)"}}}
{"substance": "free prostate specific antigen (PSA)", "values": [{"measurement": "time required for 50% cleavage of the oligopeptide", "setting": "[1]", "result": "50% cleavage occurred in less than 2 hours for those conjugates"}, {"measurement": "Time to 50% Substrate Cleavage by PSA", "setting": "Ac-PSSChgQ-SV-acid", "result": 120, "unit": "min"}, {"measurement": "time required for 50% cleavage of the oligopeptide", "setting": "[2]", "result": "50% cleavage occurred in less than 2 hours for those conjugates"}, {"measurement": "time required for 50% cleavage of the oligopeptide", "setting": "[3]", "result": "50% cleavage occurred in less than 2 hours for those conjugates"}, {"measurement": "time required for 50% cleavage of the oligopeptide", "setting": "[4]", "result": "50% cleavage occurred in less than 2 hours for those conjugates"}, {"measurement": "time required for 50% cleavage of the oligopeptide", "setting": "[5]", "result": "50% cleavage occurred in less than 2 hours for those conjugates"}, {"measurement": "time required for 50% cleavage of the oligopeptide", "setting": "[6]", "result": "50% cleavage occurred in less than 2 hours for those conjugates"}, {"measurement": "Time to 50% Substrate Cleavage by PSA", "setting": "[7]", "result": 25, "unit": "min"}, {"measurement": "time required for 50% cleavage of the oligopeptide", "setting": "[8]", "result": "50% cleavage occurred in less than 2 hours for those conjugates"}, {"measurement": "time required for 50% cleavage of the oligopeptide", "setting": "[9]", "result": "50% cleavage occurred in less than 2 hours for those conjugates"}, {"measurement": "Time to 50% Substrate Cleavage by PSA", "setting": "[10]", "result": 20, "unit": "min"}, {"measurement": "Time to 50% Substrate Cleavage by PSA", "setting": "[11]", "result": 20, "unit": "min"}, {"measurement": "Time to 50% Substrate Cleavage by PSA", "setting": "[12]", "result": 20, "unit": "min"}, {"measurement": "Time to 50% Substrate Cleavage by PSA", "setting": "Ac-PASChgQ-SL-acid", "result": 150, "unit": "min"}, {"measurement": "Time to 50% Substrate Cleavage by PSA", "setting": "[13]", "result": 75, "unit": "min"}, {"measurement": "time required for 50% cleavage of the oligopeptide", "setting": "[14]", "result": "50% cleavage occurred in less than 2 hours for those conjugates"}, {"measurement": "time required for 50% cleavage of the oligopeptide", "setting": "[15]", "result": "50% cleavage occurred in less than 2 hours for those conjugates"}, {"measurement": "time required for 50% cleavage of the oligopeptide", "setting": "[16]", "result": "50% cleavage occurred in less than 2 hours for those conjugates"}, {"measurement": "time required for 50% cleavage of the oligopeptide", "setting": "[17]", "result": "50% cleavage occurred in less than 2 hours for those conjugates"}, {"measurement": "time required for 50% cleavage of the oligopeptide", "setting": "[18]", "result": "50% cleavage occurred in less than 2 hours for those conjugates"}, {"measurement": "time required for 50% cleavage of the oligopeptide", "setting": "[19]", "result": "50% cleavage occurred in less than 2 hours for those conjugates"}, {"measurement": "time required for 50% cleavage of the oligopeptide", "setting": "[20]", "result": "50% cleavage occurred in less than 2 hours for those conjugates"}, {"measurement": "time required for 50% cleavage of the oligopeptide", "setting": "[21]", "result": "50% cleavage occurred in less than 2 hours for those conjugates"}]}
